Laboratory results reported in patent US20050196380A1, “Method for delivering therapeutic proteins to the intradermal compartment” (priority 2004, published 2005).
Where “and” joins values, the source holds several entries; their conditions need not be identical. Equal values may be shown once. Entries after “also recorded” stand apart in the source; their conditions may differ.

Tests used:
[1] = system: female Wistar rats; assay: Isotype specific (IgG1, IgG2b) antibody response against IFN-β by ELISA; type: in vivo, rat
Protocol: Isotype specific antibody responses against IFN-β were determined at weeks 2 and 24 post-injection using an ELISA Quantification Kit, commercially available from Bethyl Laboratories (Bethyl Inc., Montgomery, Tex.). A 96 well microtiter plate (Nunc Maxi-sorb plate) was coated with 1 μg/mL of IFN antigen and incubated overnight at 4° C. (to generate a standard curve wells were coated with 1 μL of capture antibody to 100 μL coating buffer); plates were washed with 50 mM Tris buffered saline, pH 8.0, 0.05% Tween (Sigma #T9039); 200 μL of Post Coat/Block solution (50 mM Tris buffered saline, pH 8.0, 1% BSA; Sigma #T6789) was added per well and incubated covered for 30 minutes at room temperature. Standards were prepared according to the package insert using the Sample/Conjugate Diluent (0.5 mL of 10% Tween 20; Sigma # P7949) per 100 mL of PostCoat/Block Solution; sample dilutions were made using the Sample/Conjugate Diluent; 100 μL of standard or sample was transferred to assigned wells and incubated for 1 hour at room temperature; conjugate was prepared according to package insert (1:20,000 for IgG1 and 1:40,000 for IgG2b); 100 μL of the conjugate was added per well and incubated for 1 hour at room temperature; 100 μL of TMB per well was added and incubated at room temperature for 30 minutes; 200 μL of 0.5 M H2SO4 per well was added to stop the reaction; plates were read at 450 nm.
(§1) Blood samples were collected once a week.

[2] = system: female Wistar rats; assay: Histological evaluation of injection site following IM and ID administration of interferon-beta; type: in vivo, rat
Text: Sample Preparation: For ID injection, the skin was removed from each injection site and placed on a small card. The excised skin was approximately lcm in diameter with the needle insertion point in the center. The center of the injection was marked with black tattoo ink at time of injection to help identify the needle insertion point. Samples were placed in individual containers with 10% formalin for fixation. For IM injection, the needle insertion point was marked with black tattoo ink at the time of injection. The skin was carefully lifted and the muscle surface directly below the needle insertion point was marked with black tattoo ink. The hamstring muscle was collected and placed on a small card. Samples were placed in individual containers with 10% formalin for fixation. […]
Sample Identification: Samples are identified by the following system. In animals 801, 803, 804, 806, 807, 808, 809 and 810 intramuscular injections were made to the hamstring muscle of female Wistar rats. In animals 811, 812, 813, 814, 815, 816, 817, 818, 819 and 820 intradermal injections (approximately 1 mm deep) were made to the lateral dorsum of female Wistar rats.
Specimen Preparation: A single section was taken from each sample. Tissue was blocked to a size appropriate for sectioning. The section was taken through the needle insertion track. Sections were H&E stained and evaluated. If evidence of irritation was observed, further sections were taken to determine the extent of the irritation. Samples were graded on a multi-parameter irritancy scale. Histological alterations were graded on the following 5-grade scale: • Grade 0: Normal/Absent/None • Grade 1: Minimal/Cell Degeneration • Grade 2: Mild/Cell Necrosis • Grade 3: Moderate/Focal Erosion • Grade 4: Marked/Massive/Generalized Erosion • Present: Finding present/Severity not scored
In addition to the grading scale, descriptions of changes and findings were documented. Measurements were taken of the Width and Depth of any site irritation as well as skin thickness. Representative photos were taken of each condition.
Study Design: Rat interferon beta (Cell Sciences Inc. (Canton, Mass.)) was administered IM or ID in phosphate buffered saline using methods described supra. The animals were divided according to the following scheme:
Intramuscular Group—Day 1: The hair on the back and on the back of the rear leg was clipped. Injection was performed using a BD 30 G×0.5″ needle to the hamstring muscle. 50 μL was injected. The center of the injection was marked with black tattoo ink to help aid in injection track identification. Rats were returned to their cages for recovery.
Intramuscular Group—Day 2 (24 hrs. post-injection): Rats were euthanized by CO2 asphxiation and the skin from rear leg was removed. The muscle directly below the needle insertion point on the skin was marked with black tattoo ink. The hamstring muscle was excised, placed on small card and stored in 10% formalin solution.
Intradermal group-Day 1 The hair on the lateral dorsum was closely clipped. and injection was performed using a 1 mm BD microneedle. 50 μL was injected The center of the injection was marked with black tattoo ink to help aid needle track identification. Rats were returned to their cages for recovery.
[…] A 1 cm diameter margin of skin (full-thickness) around the injection site was excised. Skin was placed on a small card and stored in 10% formalin solution.

[3] = system: female Wistar rats; assay: Visual observation of injection site irritation; type: in vivo, rat; details: ID administration, 3 times/wk for 24 weeks
Text: as §1
FIGS. 16A-B show injection site photos of IFN-β to female Wistar rats. Panel A is an intramuscular injection. The back of a rat's leg is shown. The injection was made into the hamstring muscle. Panel B is an intradermal injection on the rat's back. The “bleb” is circled. No irritation is evident in either photo. These photos were taken immediately post-injection.

[4] = system: female Wistar rats; details: rat, in vivo
Protocol: MATERIALS AND METHODS: Antibody titers were evaluated using an ELISA assay. 100 μL of 1 μg/mL of rat interferon beta (Cell Sciences Inc. (Canton, Mass.)) in coating buffer was added to the wells of a 96 well plate. The plate was incubated at 4° C. overnight. Well contents were removed and the wells were blocked with 5% skim milk in PBST for 2 hours at 37° C. Wells were washed and 100 μL of serum samples were added to the first row of wells. Samples were serially diluted across the plate. The plate was incubated for 1 hour at 37° C. and washed. 100 μL of 1:4000 diluted, anti-rat HRP-conjugated antibody was added to each well and the plate was incubated for 30-60 minutes at 37° C. 100 μL of TMB color developer was added to each well. 200 μL of hydrochloric acid reaction stopper was added to each well. The plate was read at 450 nm. The antibody titer is the dilution giving 3 times absorbance of blank serum.
STUDY DESIGN: A chronic dosing regimen was performed in female Wistar rats using recombinant rat IFN-β (Cell Sciences Inc. (Canton, Mass.)). An injection route comparison was performed evaluating the immunogenicity of IFN-β upon injection intradermally or intramuscularly. IFN-β was injected intradermally using BD's 34 Ga, 1 mm needle and injected intramuscularly using BD 30 Ga×0.5″ to the hamstring muscle. […] Blood samples were collected once a week.

[5] = system: female Wistar rats; details: rat, in vivo; remark: listed apart in the source
[6] = ID injection, individual animals, marked grade

B1: IFN-β: recombinant rat IFN-β (Cell Sciences Inc., Canton, Mass.) (protein, UniProt P70499 22-184, looked up)
Interferon beta: IDYKQLQFRQSTSIRTCQKLLRQLNGRLNLSYRTDFKIPMEVMHPSQMEKSYTAFAIQVMLQNVFLVFRSNFSSTGWNETIVESLLDELHQQTELLEIILKEKQEERLTWVTSTTTLGLKSYYWRVQRYLKDKKYNSYAWMVVRAEVFRNFSIILRLNRNFQN
- IFN-β specific IgG1 antibody, ID vs IM ([1]; week 2): only one animal showed any detectable IgG1 antibody; also recorded: higher
- IFN-β specific IgG2b antibody ([1]; week 2, IM or ID): no IgG2b was detectable
- mean IFN-β specific IgG2b concentration, ID vs IM ([1]; week 24): not significantly different; also recorded: comparable
- cellular reaction, in general ([2]; 2 weeks): minimal
- infiltration of injection sites with lymphocytes and neutrophils ([2]; 2 weeks, intradermal sites): minimally infiltrated
- inflammatory cell infiltrates of injection sites, compared with intradermal sites ([2]; 2 weeks, intramuscular sites): more prominent
- cellular reaction (inflammation) ([2]; 24 weeks, ID injection): minimal to moderate
- Irritation Index ([2]; ID injection, individual animals 811-820, 24 hours post-injection): 3 and 2
- Dermis, leukocyte infiltration (per 40× field) [2, 6]: Moderate - 51-100 (Moderate - 51-100)
- Edema grade [2, 6]: Absent
- Epidermis reaction grade [2, 6]: Normal, intact
- Vascular Congestion grade [2, 6]: Absent
- overall irritation index designation / histopathological classification of irritation ([2]; ID sites): minimal
- acute or chronic injection site irritation (external, visual) [3]: No external acute or chronic injection site irritation
- animals with increase in titer from week 12 [4]: one
- animals with marked increase in titer from week 12 [4]: Three
- antibody response, ID vs IM [4]: slightly stronger
- antibody response, IM vs ID [4]: slightly higher
- antibody titers by ELISA, IM vs ID [4]: not significantly different
- mean antibody response, IM vs ID [4]: higher mean antibody response
- mean antibody titers by ELISA, IM vs ID (two sample t-test) [4]: not significantly different
- mean IFN-β specific NAbs titers, IM vs ID [5]: not significantly different
